According to paper PMC7915732 (2021):
Bridge positions count the residues as written; N and C are the ends. Ends that are not written are not given here.

Key:
[1] = molecular target: T1, cyclo[E-LYLAYPAH-K] (synthetic construct, lactam 1-10); assay: yeast surface titration
T1 chain: ELYLAYPAHK

[2] = molecular target: T2, cyclo[E-LYLAYPAH-K] (synthetic construct, lactam 1-10); assay: resin adsorption isotherm
T2 chain: ELYLAYPAHK

B1: YAP WW domains 165-271 (protein)
chain: FEIPDDVPLPAGWEMAKTSSGQRYFLNHIDQTTTWQDPRKAMLSQMNVTAPTSPPVQQNMMNSASGPLPDGWEQAMTQDGEIYYINHKNKTTSWLDPRLDPRFAMNQ
B1 gave a Kd [1] of 0.68 µM and a Kd [2] of 2.64 µM.
